Consider one substance from US8217137B2, “Fullerene-based amino acids” (William Marsh Rice University, priority 2004, dated 2012).

Square brackets hold non-standard residues; d marks the D form. Ends that are not written are not given here. BAA = bucky amino acid

For the data set, the system named is Rat maxillary incisor pulp cells (RPC-C2A). The experiment in a line: Cell viability assay (Live-Dead Assay Kit), cytotoxicity of fullerene peptide. The following applies: 4, 40 and 400 μM peptide solutions in PBS, 100 μL mixed with 1.9 mL medium, 48 hrs incubation, Calcein AM / EthD-1. Format: cell-based. The procedure:
Rat maxillary incisor pulp cells (RPC-C2A) were seeded on a 24-well tissue culture plate at 3540 cells per well and incubated for 24 hr at 37° C. in a 5% CO2 environment. Dulbecco's Modified Eagle's Medium (DMEM; Invitrogen, NY) was prepared with 10% fetal bovine serum (FBS; BioWhitaker, Walkersville, Md.), 2 mM Amphothericin B, 1 unit/ml penicillin, and 100 mg/l streptomycin (Invitrogen, NY). Three different concentrations of Fullerene peptide solutions (4, 40, and 400 μM) were prepared in PBS and sterilized using 0.2 μm filter syringe. 100 μL of the solution was mixed with 1.9 mL of medium and added to cells. Control was also prepared by adding PBS buffer solution without peptide-modified fullerene to cells. After 48 hrs of incubation, cell viability was determined using Live-Dead Assay Kit (Molecular Probes, Inc., Eugene, Oreg.). Calcein AM is converted to a green fluorescent product within live cells due to enzymatic activity, while ethidium homodimer-1, a red fluorescent compound, accumulates in dead cells due to increased membrane permeability. After removing medium, cells were rinsed with PBS solution twice. Cells in each well was incubated with 0.4 mL of 4 μM EthD-1 and 2 μM of Calcein AM in PBS for 30 min and observed under fluorescent microscope.
For the statistical analysis, the data were compared with two-tailed, unpaired t-tests. […]

Take “BAA-Glu-Glu-Glu-Glu-Gly-Gly-Gly-Ser-COOH ([BAA]EEEEGGGS-OH) [fullerene-based peptide, peptide with a bucky amino acid (BAA) at the N-terminus]”: the “toxicity to the cells (cell viability)” value was “no toxicity”.
